± gives the standard deviation.
Test: protein stability index of a GFP-peptide fusion (GPS, HEK-293T) (PSI 1-6); higher = more stable
[1] = treatment: DMSO, c terminus: a fixed tail appended
[2] = treatment: MLN4924 1 uM, 8 h, c terminus: a fixed tail appended
[3] = treatment: DMSO, c terminus: native
[4] = treatment: MLN4924 1 uM, 8 h, c terminus: native
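Also: 24-mer peptide tiles fused after GFP, lentivirally expressed, FACS-sorted into six equal bins by GFP/DsRed ratio, decoded by Illumina sequencing, PSI is the read-weighted mean bin number.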

Row | Sequence | protein stability index [1] | protein stability index [2] | protein stability index [3] | protein stability index [4]
1 | LGNFFTTLRVVHHKFHSQRHGSKK [TMEM120A] | 2.39 ± 0.21 | 2.54 ± 0.64 |  | 
2 | SFVTGSHVGELIIWDALDWTMQAY [WDR41] | 2.9 ± 0.72 | 3.21 ± 1.5 |  | 
3 | SLHHTSECTQMDHLGCMHYTVRAP [ALDH8A1] | 3.04 ± 0.13 | 3.06 ± 0.25 |  | 
4 | KEQVLRKGTENLQRAQAEVLQSVR [FCHSD1] | 4.5 ± 0.096 | 4.56 ± 0.27 |  | 
5 | IETYGPHVPELEMLGRLGYLNHVR [MNAT1] | 2.4 ± 0.1 | 2.62 ± 0.19 |  | 
6 | PTHQAHTVGFLDEAIQPYRDRLRS [TRIM15] | 4.52 ± 0.039 | 4.44 ± 0.13 |  | 
7 | NADGSYLCQCHEGFALNPDKKTCT [MATN2] | 4.06 ± 0.14 | 4.2 ± 0.29 |  | 
8 | LTGQKAVKVHGLLKTFVKQTDHIK [GFOD1] | 2.85 ± 0.29 | 2.59 ± 0.27 |  | 
9 | AALSEENTGKTYFFVANKYWRYDE [MMP1] | 2.49 ± 0.37 | 2.21 ± 0.18 |  | 
10 | PSNARGPILSRSTSTGSAASSGSN [SPRY1] | 4.96 ± 0.17 | 5.01 ± 0.12 |  | 
11 | MKFAQVFGCFFYVYYIFERLCAPL [SOAT1] | 2.89 ± 0.54 | 2.87 ± 0.51 |  | 
12 | ELRLQSEAFKKHSLDLLSKERELN [CCDC89] | 3.8 ± 0.2 | 3.69 ± 0.42 |  | 
13 | KGLSGGFGSRSLYSLGGVRSLNVA [KRT71] | 2.58 ± 0.26 | 2.41 ± 0.39 |  | 
14 | VRSGAWHFSFNVKFYPPDPAQLSE [EPB41L3] | 1.98 ± 0.61 | 2.53 ± 0.18 |  | 
15 | REVAKELGIPYYETSVVAQFGIKD [RHOBTB2] | 3.2 ± 0.43 | 3.39 ± 0.27 |  | 
16 | EEFILLSQGEVEKLIKCDEIQVDS [KLHL12] | 4.49 ± 0.58 | 4.45 ± 0.48 |  | 
17 | SKARTKSLLGDDVFSTMAGLEEAD [FBF1] | 4.87 ± 0.29 | 5.05 ± 0.2 |  | 
18 | TQDPSQPNSTKNQSLPKASPVTTS [LCOR] | 5.21 ± 0.19 | 5.12 ± 0.23 |  | 
19 | EMRTKEQILELLVLEQFLTILPQE [ZNF263] | 2.44 ± 0.35 | 2.26 ± 0.43 |  | 
20 | GSKCSPEDLATAYNNRGQIKYFRV [TTC32] | 2.16 ± 0.21 | 2.13 ± 0.37 |  | 
21 | PSPSTLEPHPRPLLQRELMVPGTR [TNXB] | 4.4 ± 0.24 | 4.36 ± 0.59 |  | 
22 | RISSPQVEEGDSRFLANEVLQENY [WEE1] | 4.83 ± 0.44 | 4.91 ± 0.13 |  | 

Row | Sequence | protein stability index [1] | protein stability index [2] | protein stability index [3] | protein stability index [4]
23 | LFFIDGSTPSDNIVRRFLNICENT [CDC14A] | 2.37 ± 0.17 | 2.22 ± 0.24 |  | 
24 | ASAPTYPSLYSSYHQGCLVNPTGN [NANOGP8] | 3.29 ± 0.19 | 3.44 ± 0.17 |  | 
25 | TPHVYWAQRHRELYLRVELSDVQN [HACD3] | 2.28 ± 0.14 | 2.17 ± 0.24 |  | 
26 | SFEDDCSQSLCLNKPTMSFKDYIQ [ETS2] | 3.52 ± 0.15 | 3.67 ± 0.28 |  | 
27 | PPLSDPKQAKVVARRESGGRPIKP [BRD3] | 5.21 ± 0.15 | 5.12 ± 0.18 |  | 
28 | RNLARSQSVKMKDKLKIDLLPDGR [TAF7L] | 4.09 ± 0.28 | 4.25 ± 0.2 |  | 
29 | DNAIMLFSPDFTLRNTLKSTSEDS [FAN1] | 4.22 ± 0.34 | 4.2 ± 0.5 |  | 
30 | LHREVRSTPLTATPGGRGDMKYGI [VTI1B] | 3.72 ± 0.24 | 3.67 ± 0.12 |  | 
31 | SRWVRDPRYREDPCKQCKKKYVKG [FBXO34] | 3.59 ± 0.44 | 3.92 ± 0.14 |  | 
32 | AFMLFRKRLGSMILAFRPRPNYF [GDAP1] |  |  | 2.5 ± 0.53 | 2.12 ± 0.47
33 | EHAIAEAQKNMYFKTRLKCPRSLS [ZNF396] | 3.26 ± 0.23 | 3.53 ± 0.3 |  | 
34 | AGLAELGHRLAQKLQGLENWGQDP [PBXIP1] | 2.79 ± 0.17 | 2.85 ± 0.33 |  | 
35 | LLTWTEPPVRPAGYLLSFHTPGGQ [TNXB] | 2.42 ± 0.23 | 2.64 ± 0.29 |  | 
36 | NGVLGLSRLLFFLLGFLRIRVRGQ [LPCAT4] | 2.2 ± 0.34 | 2.44 ± 0.25 |  | 
37 | YECGVCAKKFMWRDSFMRHRGHCE [ZBTB22] | 5 ± 0.16 | 4.99 ± 0.17 |  | 
38 | TKKKQWCYNCEEEAMYHCCWNTSY [ZMYND11] | 2.6 ± 0.25 | 2.45 ± 0.4 |  | 
39 | YSQDPVYANGGLNYSYRGYGALSS [NOL4L] | 2.4 ± 0.23 | 2.71 ± 0.2 |  | 
40 | GYQRKCYFISTVKRSWTSAQNACS [CD69] | 2.46 ± 0.66 | 1.85 ± 0.59 |  | 
41 | LPACEFEMGGSEGIVESIQIMKEG [NETO1] | 4.92 ± 0.26 | 4.74 ± 0.3 |  | 
42 | ALVGDEVELPCRISPGKNATGMEV [MOG] | 4.03 ± 0.22 | 4.23 ± 0.26 |  | 
43 | SEDRTIRVWLKRDSGQYWPSIYHT [WDFY1] | 2.15 ± 0.19 | 2.25 ± 0.31 |  | 
44 | PASDLEAALEAAGEGLNVIQQTTR [NANOGP8] | 4.93 ± 0.17 | 4.95 ± 0.44 |  | 

Row | Sequence | protein stability index [1] | protein stability index [2] | protein stability index [3] | protein stability index [4]
45 | DKLEYLDEKQRDPRIEASKVLLCH [NET1] | 4.09 ± 0.22 | 4.08 ± 0.19 |  | 
46 | HCKEKRKTSLLDQLTNTSGTVIGV [NETO1] | 3.37 ± 0.24 | 3.34 ± 0.31 |  | 
47 | ESKKHQVETAFERLQQELEQQRCL [TRIM15] | 4.61 ± 0.31 | 4.53 ± 0.12 |  | 
48 | KPISTKSQFLKHQQTHNIEKAHEC [ZNF649] | 4.48 ± 0.27 | 4.41 ± 0.16 |  | 
49 | VVCVLLNLAGFILGCQGAQFVSSV [FAM189A2] | 3.35 ± 0.99 | 2.21 ± 0.42 |  | 
50 | VELHYEEGSPRNLGTPTSSTPRPS [C2CD2L] | 4.63 ± 0.48 | 4.48 ± 0.32 |  | 
51 | DTSGFPDLSDNRNEDPLVLLAWRC [FBXO33] | 2.67 ± 0.23 | 3 ± 0.46 |  | 
52 | EEGIVSPSDLDLVMSEGLGMRYAF [CRYL1] | 2.27 ± 0.42 | 3.02 ± 0.31 |  | 
53 | LQRLSHSGSRVRVGFRLCNSTGGD [SCNN1D] | 3.14 ± 0.22 | 3.11 ± 0.18 |  | 
54 | WLSDWVTSYKVMVSNDSHTWVTVK [CPXM2] | 2.67 ± 1.5 | 2.56 ± 0.2 |  | 
55 | LRMMVENIMNKEAFMNQEITKAFH [RHOBTB1] | 2.28 ± 0.5 | 2.2 ± 0.24 |  | 
56 | TNYNNVCRKFPRDMKAMSPENQEY [RHOBTB2] | 3.8 ± 0.12 | 4.13 ± 0.12 |  | 
57 | MPDYMILQELKKLKNSNYESIQQT [PPTC7] | 2.5 ± 0.41 | 2.93 ± 0.39 |  | 
58 | KKRYEEEINKRTAAENEFVLLKKD [KRT71] | 5.07 ± 0.2 | 4.99 ± 0.27 |  | 
59 | SLENTLTESEARYSSQLSQVQSLI [KRT33B] | 3.05 ± 0.23 | 3.11 ± 0.46 |  | 
60 | QKPEFQDLSVEERSFVEKHRWPSN [RHOBTB3] | 4.08 ± 0.34 | 4.04 ± 0.17 |  | 
61 | LPHPKSMLQATAEANNLAAAASAK [ATL3] | 4.86 ± 0.27 | 5.07 ± 0.19 |  | 
62 | KEGEGEVGGEAVEVEEVENVQTEF [TRIM55] | 5.716 ± 0.023 | 5.59 ± 0.37 |  | 
63 | AEIPDGPPVVAHYDMSDTNSDPEV [C18orf25] | 5.65 ± 0.21 | 5.48 ± 0.23 |  | 
64 | TEAANAARHVAPEIRELLTQFET [PWWP2B] |  |  | 3.49 ± 0.21 | 3.88 ± 0.29
65 | AAHLALLLLCGTISLRVYRKVLQA [RTN2] | 2.49 ± 0.33 | 2.51 ± 0.73 |  | 
